{"source": "the DeepSol protein solubility set", "data": [{"assay": "soluble on expression in E. coli; label from the status in PepcDB or PDB records", "values": [{"sequence": "MSLTTTPANVLASVDLGSNSFRLQICENNNGQLKVIDSFKQMVRFAAGLDEQKNLSAASQEQALDCLAKFGERLRGFRPEQVRAVATNTFRVAKNIADFLPKAEAALGFPIEIIAGREEARLIYTGVIHTLPPGGGKMLVIDIGGGSTEFVIGSTLNPDITESLPLGCVTYSLRFFQNKITAKDFQSAISAARNEIQRISKNMRREGWDFAVGTSGSAKSIRDVLAAEMPQEADITYKGMRALAERIIEAGSVKKAKFENLKPERIEVFAGGLAVMMAAFEEMKLDRMTVTEAALRDGVFYDLIGRGLNEDMRGQTVAEFQHRYHVSLNQAKRTAETAQTFMDSLCHAKNVTVQELALWQQYLGRAAALHEIGLDIAHTGYHKHSAYILENADMPGFSRKEQTILAQLVIGHRGDMKKMSGIIGTNEMLWYAVLSLRLAALFCRSRQDLSFPKNMQLRTDTESCGFILRIDREWLERHPLIADALEYESVQWQKINMPFKVEAVEGHHHHHH", "soluble on expression in E. coli": "soluble"}, {"sequence": "MSLSDNITIKDVRTYSVSAEGGGDYHLQEKGHWITDTYISNPMSMYPDYKKTRTSWGIGVLGSVVVEIELSNGIVGVATGLGGEPACWLIQHHFKRFLINQSPKNLNLIWDQMFKASMFYGRKGITICAISVVDLALWDSLGILRDEPVWQMIGGKVRDEIHFYCTGPLPVETRKMGFWGSKVPLPFGPGDGHEGLEKNYEYLKKHRDSVPEKFPLMVDCYMSLNVQYAIQLAKRCEDLNINWWEEVLHPDDIDGYKQIKLAHPDKKWTTGEHEYTRYGFRQLIETRSIDILQPDVMWVGGMTELLKISAMAAAYDLPVVPHGSGPYSSHFIFSQPHSPFCEYIAGSPDGKKVIKMFPYFDGEQLPENGKIKPSYDPGFGMKIANKDTLIEIKQNEGHHHHHH", "soluble on expression in E. coli": "soluble"}, {"sequence": "MSLQTDDPMIVAHRAGTRDFPENTVLAITNAVAAGVDGMWLTVQVSSDGVPVLYRPSDLATLTDGAGPVNSKTVQQLQQLNAGWNFTTPGVEGHPYRQRATPIPTLEQAIGATPPDMTLFLDLKQTPPQPLVSAVAQVLTRTGAAGRSIVYSTNADITAAASRQEGLQVAESRDVTRQRLFNMALNHHCDPQPDPGKWAGFELHRDVTVTEEFTLGSGISAVNAELWDEASVDCFRSQSGMKVMGFAVKTVDDYRLAHKIGLDAVLVDSPLAAQQWRHEGHHHHHH", "soluble on expression in E. coli": "not soluble"}, {"sequence": "NKSDAAAKQIKKLEEDFDGRIGVFAIDTGSGNTFGYRSDERFPLCSSFKGFLAAAVLERVQQKKLDINQKVKYESRDLEYHSPITTKYKGSGMTLGDMASAALQYSDNGATNIIMERFLGGPEGMTKFMRSIGDNEFRLDRWELELNTAIPGDKRDTSTPKAVANSLNKLALGNVLNAKVKAIYQNWLKGNTTGDARIRASVPADWVVGDKTGSCGAYGTANDYAVIWPKNRAPLIVSIYTTRKSKDDKHSDKTIAEASRIAIQAID", "soluble on expression in E. coli": "soluble"}, {"sequence": "TMNPLYSLKRSEERRNVVLSRMLDEKYISKEEYDAALKEPIVASYHGAKFEFRADYVTEMVRQEMVRRFGEENAYTSGY", "soluble on expression in E. coli": "not soluble"}, {"sequence": "MAKRDYYEVLGVSRDAEEREIKKAYKRLAMKFHPDRQSEDKNAEEKFKEAKEAYEILTDAQKRAAYDQYGHAAFEQGGMGGGGFGGGGGGADFSDIFGDVFGDIFGGGRRQQRASRGSDLRYNMDLTLEEAVRGVTKEIRIPTLDECDVCHGSGAKPGSSPVTCPTCHGAGQVQMRQGFFTVQQACPHCHGRGQIIKDPCNKCHGHGRVEKSKTLSVKIPAGVDTGDRIRLSGEGEAGEHGAPSGDLYVQVQVKAHPIFEREGNNLYCEVPINFAMAALGGEIEVPTLDGRVKLKIPAETQTGKMFRMRGKGVKSVRGGSQGDLLCRVVVETPVSLSEKQKQLLRELEESFVGAAGEKNSPRAKSFLDGVKKFFDDLTR", "soluble on expression in E. coli": "not soluble"}, {"sequence": "MSLKIILVEDEENLARLLKEAIGDNFHSFTVAKDGIEGIEFFKKIRPDIVITDIMMPNLDGLKMAKELKRINPNIPIIILSAFSEKEKLLSAIDVGITKYFIKPFDAEELLEYISSITSRIENKILKLSDCYIFNKNTSSLYKNEKYIALSKNDIKFLYLLLDSKNRTVDDISIKEALWGGDASDERLRTFIKRFREKTSKMLIKNIKGFGYQLLLNEGHHHHHH", "soluble on expression in E. coli": "not soluble"}, {"sequence": "MGALLKGRIYTMSVKTLKRTITAVAILAASVMSSSAWSNDLKEIRERGVLRHIGVPYANFVSYIEQGEMHTLTGLDVDIVKGFASSLGVRYEYVPAQWSDMVGKLTGQDVQYRHNRAVVGGSVPIEGDLIANGVTILDWREEVLDFSQDYFPSAVWLVSRTDSSLSPIKPSGSIDEDVKTVKELIDGREVLALEHSCLDPNLYDLYDTGAKVILPDGKRLLNEMVPAIMKNDAESTLLDVADTLIALEKWPG", "soluble on expression in E. coli": "not soluble"}, {"sequence": "MSLNILDVMKIPAFENANLIAGKAGGEREVQHVNMMDAPDIVDFLHKNELLVTTAYHLKDHPHQLSELIRQMAKRGCAGLGIKTKRYLEDIPKEIIELADSYAFPIIELPEHIRLGDIVNATLSHILDMRSNEGHHHHHH", "soluble on expression in E. coli": "soluble"}, {"sequence": "SLRFYAACLASYNNGVLHGRWIDASSDTDEMQEEVSAMLRASRFPNVMVKCPNCEGRLELCTVCDGGSREVPSAEEWAIHDYDGLPSSLGEYPGLDKIAAFVELCEEHDMTGEDMAAIVSHFGSVEYAKEELGNNFVGVHESFRAYAEELADEMLSAHDIKADHPLSQYFDYEAYARDLRHSASAVELDEGVAVFCV", "soluble on expression in E. coli": "soluble"}, {"sequence": "MGSDKIHHHHHHACRQVATESRVQPASFEVGSSMIADTFFLDSLSLFMPETNEEALINNIDRVYESNGRYFILDKRMKQVLCYTLSGKHLFTIHAVGNGKGEYVDLFDIAIDEAENKLLLLTYPSQILYYDLEGTYLSSYPLDDTYQSFAVDKGFIYLRNDTYANGVVSDYSLIVINKETGKQTSLLEPLYETAPFCSSGNYQITNTASVLFTRKFDNHIYRITGESIEPLYMVDWKDKAFPESDKQRQFQCNDLNQLCYQGKYVYTMTDLCDTPSYLLFRTNQPGMCLLSKATSTVNNYQVIINTDYQLPLPNYMSVEGKQSRIFFIYSSEVLCEQKKLSAEEDINEKMSSLLGQIKEGDNPVIFTYHVK", "soluble on expression in E. coli": "not soluble"}, {"sequence": "MTARAIIIGAPRSGSGKTSVTIGLLRAFARRGVKVRGIKTGPDYIDPGFHAFATGTPGLNLDSWAMQPDLLRHLFSQQTEDAELILIESAMGLFDGIPVAENRTGSAADLARLFRIPVLLVLDVSGQSQTAATIAHGFAHYDPDVTMGAVVLNRAGSERHRTLCTEAIEKIGLPVVGCVLRDPSLILPERHLGLVQASEHPEIDPHIDRLADAMEKSIDLDTLFSLAAPVDMPCGSVAAAIAPPGQRIALAEDAAFTFLYPHLRRHWRAAGAEIVPFSPLADEAPDESCDICWLPGGYPELFAGKLADAVGFKAGITRFAETKPVHGECGGYMVLGERLEDAEGVIHAMTGLLSHATSFATRKMNLGYRQATIAADSPLGMAGDVLRGHEFHYARVIDPGRDQPFAHMADGQGRPLGPSGGRRGFVSGTFFHAIAKGGLEHHHHHH", "soluble on expression in E. coli": "not soluble"}, {"sequence": "GDTRPRFLQQDKYECHFFNGTERVRFLHRDIYNQEEDLRFDSDVGEYRAVTELGRPDAEYWNSQKDFLEDRRAAVDTYCRHNYGVGESFTVQRRVEPKVTVYPARTQTLQHHNLLVCSVNGFYPGSIEVRWFRNSQEEKAGVVSTGLIQNGDWTFQTLVMLETVPRSGEVYTCQVEHPSVTSPLTVEWRAQS", "soluble on expression in E. coli": "soluble"}, {"sequence": "MSTAPLENAPTPGGARFTKIYDEDGEHIITRDEHKGLEWTAHALDSRHAAGFGNLLRRSGAKKVCRELTLGGHTDWRVPEIEEAMSIGLVDTCWPANETWFWTCTPCEQEPENKAWAFEFGTGNKRIEDRRIWLHVRAVRGQMRTDATATPKAGESLEHHHHHH", "soluble on expression in E. coli": "soluble"}, {"sequence": "MSLNSSFFKMMEKRSYNRFNQEQKAAITYDMKKHLRIIAGAGSGKTQTICAKAVYLMTQKQVDEERILMITFTRNAANELKKRVDNFSQRKTAVHIGTFHSIFFRIYNEICRKFPEVAMQGIQGDFSKDTAQKVNAVLQQLIRKYNLYIFDQYGEKTIASRLDYWQNMNLSVEEMVQLVKEKYDSIDKNARQPISERLYGLLTELQEQKRSQQLLEFNDVLQNLKSALENEEIQHYIGQKYDYLFIDEFQDTNPLQWEIVKRMTKENRIKLIVVGDDDQSIYGFRGSEPAYIKNFEKEYPTKTLFLLTNYRSRAAIVQGANRLISYNKNDRIPKAMIPAQKEAGVMEAYLFSDTKAESQWLIKQIQTFIQKNGKYKESIILYRSASQTQQLVQSLLKTNIPFVLEADSPYEGIFGIKSFQHFYQKIVHWQTALNLQKKNQAYQQLLRQLMADCYLKKSECDQYFSPKYQNIAVADYILSISPNLKSKSAEIREFEEALRKTDQHQEIYSLVQSYLHLPRIAKEIDQSDQEWIREEVKQHATFRRLQALSQETQATAKELKTREGHHHHHH", "soluble on expression in E. coli": "not soluble"}, {"sequence": "MTEIVERMKKKNIVKPIVYGNTATPFGYKRDSDQHTHQWTVFLKPYLIEDPTKWIRKVQFKLHESYAVPYRVVEKPPYEVTETGWGEFEIQIRIYFVDPNEKPITAFHYLRLFQPTIELPSGNQIVCMEFYDEIIFQEPTVQMYKALQASDGKRPDKQAFLNDIEQVKTRTRELGEVAQKEIAAEIEDLRESLKDAHKMIVKYNTELAEQE", "soluble on expression in E. coli": "not soluble"}, {"sequence": "MSLDEVIIGVCWPFSVNRDGMADGLHLALDEINTRRLAGPYTIRLVERDDEFDSKKHKNIAREFADRADMSAVLGYYDDGPSIRASSIYESSRLLHLMIGANNTDMTSHGFNYINRTILSSDRIALKLAKLTTDLGYRKIVVLWEEDAYGEDLAYQYQVGLDQLNAQVVYQWSYSRKNVDFRLLVNDLKIVDADMIFFSGLEPIAGDFLRMARKVGLKTPVIGAFSNTPEMRAHAGAVGFEGAIMFDFYNPCSQTPENRLFVNKFFSRYGRYPDAWAAQSYDALHILAKAIKFTGSRNPLDLSYAIRYADAFNGANGRYKFDRAGNLEDKPIYLYKIQNGVPVLLEEGHHHHHH", "soluble on expression in E. coli": "soluble"}, {"sequence": "MGSDKIHHHHHHMNIRKYIWAYVVAMALICPGVKAQEQITIGVIQYDVRDIDKSFKALHEQGFGSCELNYSEKRFTKELAEQVKAASEKHRIRVTTLVGVPGSKSTWNFRQGPATIGLVPIDERFEKLDLYRKMIDFCVQAGIPAMHSHFGFIPEDPSSAQYKDFIEVMRGLATYAKERNVLIYFETGQETPITLIRAIRDIGTGNLFINCDLANLLMYGKSNSLDAVKLFGNLIKEFHAKDGKYPDPNNPYELGHEVPIPTGDVDFPAVIAELKKQGFKGAITIECELNGTRHDYVIQTRKYLQELLDR", "soluble on expression in E. coli": "not soluble"}, {"sequence": "MGGPGETQIEADRRLLQDRIVKLEKELEQVVRTRQLHRAKRRKVPHPIVALVGYTNAGKSTLFNRITGAGVLAEDMLFATLDPTLRRMKLPHGRTVILSDTVGFISDLPTHLVAAFRATLEEVLEADLVLHVRDMSDPDNAAQSADVLRILGDLGIDEKEAEKRIIEVWNKVDRLEPEAHDAIMQRAEGRSDIRAVSAITGEGVDALMEEISKRLSGVLTETTVVLSVEQLPLISWVYSNSIVDNREDHEDGSVALDVRLSEAQAVELERKLGKTAGREREDWERAAALEHHHHHH", "soluble on expression in E. coli": "not soluble"}, {"sequence": "TTILKHLPVGQRIGIAFSGGLDTSAALLWMRQKGAVPYAYTANLGQPDEEDYDAIPRRAMEYGAENARLIDCRKQLVAEGIAAIQCGAFHNTTGGLTYFNTTPLGRAVTGTMLVAAMKEDGVNIWGDGSTYKGNDIERFYRYGLLTNAELQIYKPWLDTDFIDELGGRHEMSEFMIACGFDYKMSVEKAYSTDSNMLGATHEAKDLEYLNSSVKIVNPIMGVKFWDESVKIPAEEVTVRFEQGHPVALNGKTFSDDVEMMLEANRIGGRHGLGMSDQIENRIIEAKSRGIYEAPGMALLHIAYERLLTGIHNEDTIEQYHAHGRQLGRLLYQGRWFDSQALMLRDSLQRWVASQITGEVTLELRRGNDYSILNTVSENLTYKPERLTMEKGDSVFSPDDRIGQLTMRNLDITDTREKLFGYAKTGLLSSSAASGVPQVENLENKGQSVEHHHHHH", "soluble on expression in E. coli": "soluble"}, {"sequence": "MKFKKYILTGTLALLLSSTGIATIEGNKADASSLDKYLTESQFHDKRIAEELRTLLNKSNVYALAAGSLNPYYKRTIMMNEYRAKAALKKNDFVSMADAKVALEKIYKEIDEIINR", "soluble on expression in E. coli": "not soluble"}]}]}
